Drawing on article PMC4557345, this text covers recovery time constant of the light-activated whole-cell current (patch clamp, HEK293T), against dmBACCS2 (fold of dmBACCS2) for 2 substances.

For the assay, the target named is Drosophila Orai (dOrai), expressed in HEK293T cells (Drosophila) (UniProt Q9U6B8).
Chain of UniProt Q9U6B8 (Q9U6B8 whole entry): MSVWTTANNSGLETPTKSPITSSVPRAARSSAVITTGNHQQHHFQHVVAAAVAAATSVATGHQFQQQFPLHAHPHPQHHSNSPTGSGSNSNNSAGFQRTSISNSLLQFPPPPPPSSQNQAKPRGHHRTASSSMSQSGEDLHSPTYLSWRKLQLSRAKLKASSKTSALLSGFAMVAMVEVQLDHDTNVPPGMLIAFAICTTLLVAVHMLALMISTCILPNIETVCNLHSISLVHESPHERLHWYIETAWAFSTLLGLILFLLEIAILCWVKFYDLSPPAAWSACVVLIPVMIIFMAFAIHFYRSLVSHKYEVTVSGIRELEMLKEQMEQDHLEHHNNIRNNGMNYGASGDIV

Consider dmBACCS2-V416L, for which the recovery time constant of the light-activated whole-cell current (patch clamp, HEK293T), against dmBACCS2 (fold of dmBACCS2) was above 100.

Turning to dmBACCS2-N425S, the recovery time constant of the light-activated whole-cell current (patch clamp, HEK293T), against dmBACCS2 (fold of dmBACCS2) was below 0.5.
